Where no end group is shown, it is not given here.
Key:
integrin αvβ3 = molecular target: T1, integrin αvβ3 (Homo sapiens, UniProt P05106+P06756); test: Competition ELISA with biotinylated RGD-Knottin, integrin αvβ3; format: binding
T1 construct: purchased R&D Systems
Procedure: All integrins used in this study contained the human sequence.
The binding assay was conducted as a competition ELISA using biotinylated Knottin and unlabeled peptides.
Methods were carried out as follows, as described by Bernhagen 2017.
Incubation and washing buffers were prepared using standard protocols. Recombinant human integrins were purchased from R&D Systems (Minneapolis, U.S.A.). Strep-HRP (Streptavidin-Horseradish Peroxidase conjugate, Southern-Biotech, Birmingham, U.S.A.), and rabbit anti-mouse-HRP (Southern-Biotech, Birmingham, U.S.A.) were diluted 1:200-1:1000 for ELISA experiments.
All integrins were dissolved according to manufacturer's protocol and stored in 25 μL aliquots of 100 μg/mL in PBS. For coating of one 96 well plate, 2 aliquots were thawed and dissolved in 9.95 mL of cold coating buffer for a 0.5 μg/mL solution.
After coating, the plates were subsequently sealed and stored at 4° C. overnight. […]
The following washing and incubation steps were performed according to manuscript. […] Peptides, whose integrin binding strength were to be determined, were mixed in 12 different concentrations (each 3-fold dilutions) with a fixed concentration of RGD-Knottin (both in PBS, 15 min, room temperature), followed by incubation of the plates with peptide/RGD-Knottin solutions.
Substrate buffer incubation and absorbance measurements were identical to that for binding ELISA. […]

subjects with knee OA = settings: cited from earlier work
[1] = molecular target: T2, recombinant human integrin αvβ6 (human, UniProt P06756 31-992; P18564 22-707); test: competition ELISA with biotinylated RGD-Knottin on coated integrin
T2 construct: Bought from R&D Systems

[2] = molecular target: T3, recombinant human integrin αvβ8 (human, UniProt P06756 31-992; P26012 43-684); test: as above
T3 construct: Bought from R&D Systems

[3] = molecular target: T4, recombinant human integrin αvβ1 (human, UniProt P06756 31-992; P05556 21-728); test: as above
T4 construct: Bought from R&D Systems

[4] = molecular target: T5, recombinant human integrin α2β1 (human, UniProt P17301 30-1132; P05556 21-728); test: as above
T5 construct: Bought from R&D Systems

[5] = molecular target: T6, recombinant human integrin α1β1 (human, UniProt P56199 29-1141; P05556 21-728); test: as above
T6 construct: Bought from R&D Systems

[6] = molecular target: T7, recombinant human integrin αvβ5 (human, UniProt P06756 31-992; P18084 24-719); test: as above
T7 construct: Bought from R&D Systems

[7] = molecular target: T8, recombinant human integrin αvβ3 (human, UniProt P06756 31-992; P05106 27-718); test: competition ELISA; coated integrin, biotinylated RGD-Knottin as competitor (FIG. 4)
T8 construct: Bought from R&D Systems

[8] = molecular target: T2, recombinant human integrin αvβ6; test: competition ELISA with Knottin; reference integrin αvβ3
[9] = molecular target: T3, recombinant human integrin αvβ8; test: as above
[10] = molecular target: T4, recombinant human integrin αvβ1; test: as above
[11] = molecular target: T5, recombinant human integrin α2β1; test: as above
[12] = molecular target: T6, recombinant human integrin α1β1; test: as above
[13] = molecular target: T9, recombinant human integrin α9β1 (human, UniProt Q13797 30-981; P05556 21-728, limits assumed); test: binding study with Knottin; reference integrin αvβ3
T9 construct: Bought from R&D Systems; Named only for the initial screening

[14] = molecular target: T10, recombinant human integrin α3β1 (human, UniProt P26006 33-991; P05556 21-728); test: as above
T10 construct: Bought from R&D Systems; Named only for the initial screening

[15] = molecular target: T11, recombinant human integrin α5β1 (human, UniProt P08648 42-995; P05556 21-728); test: as above
T11 construct: Bought from R&D Systems; Named only for the initial screening

[16] = molecular target: T12, recombinant human integrin α10β1 (human, UniProt O75578 23-1122; P05556 21-728, limits assumed); test: as above
T12 construct: Bought from R&D Systems; Named only for the initial screening

[17] = molecular target: T13, recombinant human integrin α4β1 (human, UniProt P13612 34-970; P05556 21-728, limits assumed); test: as above
T13 construct: Bought from R&D Systems; Named only for the initial screening

[18] = molecular target: T14, recombinant human integrin α6β1 (human, UniProt P23229 24-1011; P05556 21-728, limits assumed); test: as above
T14 construct: Bought from R&D Systems; Named only for the initial screening

GFQDSLDSNRQDPGTDPEKGIDF-NH2 [SEQ ID No: 15]
binding affinity (IC50) of the peptide and integrin αvβ3 (integrin αvβ3; peptide concentration giving 50% inhibition of biotinylated knottin binding, triplicate): no binding affinity within the limits of the binding assay
IC50 (integrin αvβ3; read-out: binding affinity (IC50) of the peptide and integrin αvβ3): > 3.94 mM

N#Cc1c(N(CC(=O)[O-])CC(=O)[O-])sc(C(=O)[O-])c1CC(=O)[O-].[Sr+2].[Sr+2] [strontium ranelate]
risk of myocardial infarction (subjects with knee OA; in vivo): increase the risk of myocardial infarction

O=P(O)(O)C(O)(Cc1cccnc1)P(=O)(O)O [risedronate]
effects on pain (subjects with knee OA; n=2483, Bingham 2006): favoring placebo over active drug

B1: scrambled peptide of SEQ ID No: 15 (peptide)
peptide: GFQDSLDSNRQDPGTDPEKGIDF-NH2
notes: Synthetic, made on a Rink-amide resin; also called scramble peptide
binding result [1]: no binding
binding result [2]: no binding
binding result [3]: no binding
binding result [4]: no binding
binding result [5]: no binding
binding result [6]: no binding

PDLQERGDNDISPFSGDGQPFKD-NH2 [peptide of SEQ ID No: 12 (canine orthologue of TPX-100)]
IC50 [7]: ~23 µg/mL
fold by which the binding affinity to αvβ3 is higher than to this integrin [8]: ≥ 300 times
fold by which the binding affinity to αvβ3 is higher than to this integrin [9]: ≥ 300 times
fold by which the binding affinity to αvβ3 is higher than to this integrin [10]: ≥ 300 times
fold by which the binding affinity to αvβ3 is higher than to this integrin [11]: ≥ 300 times
fold by which the binding affinity to αvβ3 is higher than to this integrin [12]: ≥ 300 times
fold by which the binding affinity to αvβ3 is higher than to this integrin [13]: ≥ 300 times
fold by which the binding affinity to αvβ3 is higher than to this integrin [14]: ≥ 300 times
fold by which the binding affinity to αvβ3 is higher than to this integrin [15]: ≥ 300 times
fold by which the binding affinity to αvβ3 is higher than to this integrin [16]: ≥ 300 times
fold by which the binding affinity to αvβ3 is higher than to this integrin [17]: ≥ 300 times
fold by which the binding affinity to αvβ3 is higher than to this integrin [18]: ≥ 300 times

— patent US12622945B2, “Hard tissue therapeutics” (OrthoTrophix, Inc., priority 2020, dated 2026)
